Measured values from patent US20190374506.

System: Flag-PTEN

WW domain containing E3 ubiquitin protein ligase 1 (WWP1)
in vitro ubiquitination of Flag-PTEN (E1, E2, ubiquitin; western blot with anti-PTEN antibody), WWP1 alone: incubation of WWP1 alone only slightly triggered PTEN poly-ubiquitination
in vitro ubiquitination of Flag-PTEN, WWP1 and NEDD4-1 both present: in the presence of both WWP1 and NEDD4-1, PTEN was robustly K27-linked poly-ubiquitinated
